Consider 125 sequences from the supplement of paper PMC9112550, “Optimization of the antimicrobial peptide Bac7 by deep mutational scanning” (BMC Biology, 2022).

The subject of this data set is Escherichia coli TOP10. The data set is described as follows: shrunken log2 fold change of peptide-encoding DNA abundance (4.5 h post-induction vs induction); higher = less antimicrobial activity (less host growth inhibition). The following applies: time post-induction: 4.5 h; library: site-saturation at positions 5, 18, 19, 20.
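Also: peptides expressed intracellularly from a pBAD plasmid library in pooled LB shake-flask culture, induced with 0.3% L-arabinose, DNA abundance read by NGS, three biological replicates, DESeq2 with apeglm shrinkage.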

As for RRIRARPPRLPRPRPRPIWLPRP, the “shrunken log2 fold change” value worked out at 0.221.

For RRIRRRPPRLPRPRPRPFAEPRP, the “shrunken log2 fold change” value stood at 0.61.

As for RRIRIRPPRLPRPRPRPKVNPRP, the “shrunken log2 fold change” value is -0.647.

RRIRWRPPRLPRPRPRPVCQPRP: the “shrunken log2 fold change” value is -0.0154.

With RRIRTRPPRLPRPRPRPFCDPRP, the “shrunken log2 fold change” value was -0.268.

On to RRIRFRPPRLPRPRPRPYCIPRP, for which the “shrunken log2 fold change” value is -0.597.

On to RRIRPRPPRLPRPRPRPKKPPRP, for which the “shrunken log2 fold change” value was determined as 0.0432.

Consider RRIRRRPPRLPRPRPRPGYLPRP, for which the “shrunken log2 fold change” value was -0.12.

Consider RRIRQRPPRLPRPRPRPQAGPRP, for which the “shrunken log2 fold change” value is -0.158.

As to RRIRFRPPRLPRPRPRPNLRPRP, the “shrunken log2 fold change” value was -0.0383.

For RRIRTRPPRLPRPRPRPFFDPRP, the “shrunken log2 fold change” value was -0.429.

As to RRIRGRPPRLPRPRPRPGFKPRP, the “shrunken log2 fold change” value was found to be 0.354.

Regarding RRIRIRPPRLPRPRPRPDVAPRP, the “shrunken log2 fold change” value is -0.206.

Consider RRIRKRPPRLPRPRPRPKKYPRP, for which the “shrunken log2 fold change” value is -0.149.

Regarding RRIRIRPPRLPRPRPRPSNIPRP, the “shrunken log2 fold change” value is -0.207.

RRIRSRPPRLPRPRPRPDEWPRP: the “shrunken log2 fold change” value was -0.00195.

RRIRRRPPRLPRPRPRPCWHPRP: the “shrunken log2 fold change” value was -0.0148.

For RRIRDRPPRLPRPRPRPPGEPRP, the “shrunken log2 fold change” value was -0.0136.

With RRIRGRPPRLPRPRPRPNYEPRP, the “shrunken log2 fold change” value was found to be 0.161.

With RRIRTRPPRLPRPRPRPRFWPRP, the “shrunken log2 fold change” value was 0.0622.

For RRIRCRPPRLPRPRPRPMGMPRP, the “shrunken log2 fold change” value was -0.184.

Take RRIRHRPPRLPRPRPRPKLDPRP: the “shrunken log2 fold change” value was determined as 0.225.

For RRIRARPPRLPRPRPRPDIIPRP, the “shrunken log2 fold change” value is 0.363.

On to RRIRFRPPRLPRPRPRPMCYPRP, for which the “shrunken log2 fold change” value is -0.416.

Take RRIRNRPPRLPRPRPRPPINPRP: the “shrunken log2 fold change” value is -0.186.

With RRIRRRPPRLPRPRPRPELMPRP, the “shrunken log2 fold change” value turned out to be 0.0537.

Regarding RRIRIRPPRLPRPRPRPVTTPRP, the “shrunken log2 fold change” value was -0.0229.

On to RRIRWRPPRLPRPRPRPWSAPRP, for which the “shrunken log2 fold change” value amounted to 0.228.

RRIRDRPPRLPRPRPRPMCKPRP: the “shrunken log2 fold change” value came out at 0.108.

Turning to RRIRMRPPRLPRPRPRPRKRPRP, the “shrunken log2 fold change” value came out at 3.

On to RRIRFRPPRLPRPRPRPGHVPRP, for which the “shrunken log2 fold change” value is -0.447.

With RRIRIRPPRLPRPRPRPEVYPRP, the “shrunken log2 fold change” value is -0.0738.

Regarding RRIRGRPPRLPRPRPRPNMVPRP, the “shrunken log2 fold change” value is -0.00462.

With RRIRFRPPRLPRPRPRPHENPRP, the “shrunken log2 fold change” value was determined as 0.0161.

On to RRIRVRPPRLPRPRPRPFCWPRP, for which the “shrunken log2 fold change” value was 0.163.

For the sequence RRIRERPPRLPRPRPRPFEFPRP, the “shrunken log2 fold change” value is -0.629.

As for RRIRPRPPRLPRPRPRPSWQPRP, the “shrunken log2 fold change” value is -0.0441.

With RRIRVRPPRLPRPRPRPQWYPRP, the “shrunken log2 fold change” value was -0.327.

In the case of RRIRGRPPRLPRPRPRPKYHPRP, the “shrunken log2 fold change” value was 0.00515.

Take RRIRKRPPRLPRPRPRPDFIPRP: the “shrunken log2 fold change” value is -0.209.

RRIRSRPPRLPRPRPRPHAKPRP: the “shrunken log2 fold change” value was -0.288.

For the sequence RRIRQRPPRLPRPRPRPEGQPRP, the “shrunken log2 fold change” value is -0.0666.

Consider RRIRRRPPRLPRPRPRPIWPPRP, for which the “shrunken log2 fold change” value turned out to be 0.664.

With RRIRPRPPRLPRPRPRPLRAPRP, the “shrunken log2 fold change” value is 0.86.

On to RRIRARPPRLPRPRPRPMAWPRP, for which the “shrunken log2 fold change” value turned out to be 0.662.

On to RRIRHRPPRLPRPRPRPALIPRP, for which the “shrunken log2 fold change” value was found to be 0.0852.

Regarding RRIRSRPPRLPRPRPRPERPPRP, the “shrunken log2 fold change” value stood at 0.384.

With RRIRSRPPRLPRPRPRPENPPRP, the “shrunken log2 fold change” value was -0.143.

Take RRIRQRPPRLPRPRPRPEPHPRP: the “shrunken log2 fold change” value amounted to 0.0864.

On to RRIRWRPPRLPRPRPRPEQAPRP, for which the “shrunken log2 fold change” value is -0.0201.

On to RRIRGRPPRLPRPRPRPEPTPRP, for which the “shrunken log2 fold change” value was 1.52.

For the sequence RRIRWRPPRLPRPRPRPSLVPRP, the “shrunken log2 fold change” value is -0.0104.

With RRIRVRPPRLPRPRPRPRVHPRP, the “shrunken log2 fold change” value amounted to 1.62.

RRIRGRPPRLPRPRPRPFQRPRP: the “shrunken log2 fold change” value is -0.0485.

On to RRIRFRPPRLPRPRPRPTIGPRP, for which the “shrunken log2 fold change” value is -0.0631.

As for RRIRQRPPRLPRPRPRPHSTPRP, the “shrunken log2 fold change” value was -0.149.

On to RRIRWRPPRLPRPRPRPSPPPRP, for which the “shrunken log2 fold change” value stood at 0.423.

Regarding RRIRGRPPRLPRPRPRPECWPRP, the “shrunken log2 fold change” value was determined as 1.92.

With RRIRMRPPRLPRPRPRPDQRPRP, the “shrunken log2 fold change” value is -0.105.

RRIRHRPPRLPRPRPRPMYYPRP: the “shrunken log2 fold change” value is -0.681.

RRIRTRPPRLPRPRPRPKNSPRP: the “shrunken log2 fold change” value is -0.438.

Regarding RRIRERPPRLPRPRPRPDIKPRP, the “shrunken log2 fold change” value is -0.248.

On to RRIRQRPPRLPRPRPRPTWVPRP, for which the “shrunken log2 fold change” value is 2.03.

As for RRIRFRPPRLPRPRPRPLISPRP, the “shrunken log2 fold change” value was -0.178.

Take RRIRRRPPRLPRPRPRPADRPRP: the “shrunken log2 fold change” value came out at 0.00311.

With RRIRPRPPRLPRPRPRPCCGPRP, the “shrunken log2 fold change” value is -0.0386.

With RRIRARPPRLPRPRPRPCDYPRP, the “shrunken log2 fold change” value was -0.295.

As for RRIRKRPPRLPRPRPRPPFKPRP, the “shrunken log2 fold change” value came to 0.498.

On to RRIRWRPPRLPRPRPRPIGHPRP, for which the “shrunken log2 fold change” value worked out at 0.0282.

Turning to RRIRVRPPRLPRPRPRPDNLPRP, the “shrunken log2 fold change” value was 0.0725.

Consider RRIRSRPPRLPRPRPRPWMRPRP, for which the “shrunken log2 fold change” value stood at 0.709.

As to RRIRHRPPRLPRPRPRPFQSPRP, the “shrunken log2 fold change” value is -0.00192.

As to RRIRWRPPRLPRPRPRPIIFPRP, the “shrunken log2 fold change” value is -0.303.

Consider RRIRSRPPRLPRPRPRPHWYPRP, for which the “shrunken log2 fold change” value was -0.648.

In the case of RRIRLRPPRLPRPRPRPQKPPRP, the “shrunken log2 fold change” value was -0.272.

With RRIRNRPPRLPRPRPRPRPFPRP, the “shrunken log2 fold change” value turned out to be 0.472.

For the sequence RRIRRRPPRLPRPRPRPFRQPRP, the “shrunken log2 fold change” value was -0.0196.

Regarding RRIRMRPPRLPRPRPRPIHNPRP, the “shrunken log2 fold change” value is -0.58.

Turning to RRIRIRPPRLPRPRPRPPVDPRP, the “shrunken log2 fold change” value was -0.111.

RRIRLRPPRLPRPRPRPKHCPRP: the “shrunken log2 fold change” value was -0.207.

For the sequence RRIRDRPPRLPRPRPRPVQLPRP, the “shrunken log2 fold change” value is 0.0283.

On to RRIRQRPPRLPRPRPRPIMHPRP, for which the “shrunken log2 fold change” value was -0.172.

Turning to RRIRCRPPRLPRPRPRPREMPRP, the “shrunken log2 fold change” value is 0.245.

For RRIRHRPPRLPRPRPRPTRIPRP, the “shrunken log2 fold change” value was -0.0296.

Consider RRIRSRPPRLPRPRPRPWPDPRP, for which the “shrunken log2 fold change” value is -0.14.

Regarding RRIRLRPPRLPRPRPRPHLAPRP, the “shrunken log2 fold change” value was 0.053.

For RRIRFRPPRLPRPRPRPENSPRP, the “shrunken log2 fold change” value was -3.45e-05.

As to RRIRYRPPRLPRPRPRPDPYPRP, the “shrunken log2 fold change” value is -0.222.

As for RRIRVRPPRLPRPRPRPWEFPRP, the “shrunken log2 fold change” value was -0.102.

Consider RRIRVRPPRLPRPRPRPWDPPRP, for which the “shrunken log2 fold change” value is -0.301.

On to RRIRYRPPRLPRPRPRPQRRPRP, for which the “shrunken log2 fold change” value is -0.261.

Regarding RRIRGRPPRLPRPRPRPKLPPRP, the “shrunken log2 fold change” value is 0.821.

RRIRQRPPRLPRPRPRPAGYPRP: the “shrunken log2 fold change” value was -0.101.

As to RRIRCRPPRLPRPRPRPFKFPRP, the “shrunken log2 fold change” value is -0.788.

On to RRIRDRPPRLPRPRPRPIDHPRP, for which the “shrunken log2 fold change” value was -0.273.

In the case of RRIRCRPPRLPRPRPRPPNAPRP, the “shrunken log2 fold change” value turned out to be 0.262.

For RRIRIRPPRLPRPRPRPCHGPRP, the “shrunken log2 fold change” value was -0.545.

Consider RRIRWRPPRLPRPRPRPHSWPRP, for which the “shrunken log2 fold change” value turned out to be 0.189.

As for RRIRKRPPRLPRPRPRPEYMPRP, the “shrunken log2 fold change” value was 0.264.

As to RRIRQRPPRLPRPRPRPSKFPRP, the “shrunken log2 fold change” value was -0.246.

Turning to RRIRFRPPRLPRPRPRPIHIPRP, the “shrunken log2 fold change” value is -0.022.

For the sequence RRIRVRPPRLPRPRPRPWGRPRP, the “shrunken log2 fold change” value stood at 0.0354.

With RRIRSRPPRLPRPRPRPMHCPRP, the “shrunken log2 fold change” value is 0.377.

Take RRIRQRPPRLPRPRPRPTHRPRP: the “shrunken log2 fold change” value was -0.000309.

Turning to RRIRERPPRLPRPRPRPQEVPRP, the “shrunken log2 fold change” value was -0.0156.

In the case of RRIRFRPPRLPRPRPRPDHWPRP, the “shrunken log2 fold change” value was -0.00426.

For RRIRQRPPRLPRPRPRPHDPPRP, the “shrunken log2 fold change” value was 0.142.

For the sequence RRIRKRPPRLPRPRPRPQSYPRP, the “shrunken log2 fold change” value stood at 0.04.

For the sequence RRIRNRPPRLPRPRPRPMTTPRP, the “shrunken log2 fold change” value was -0.174.

With RRIRERPPRLPRPRPRPPQIPRP, the “shrunken log2 fold change” value worked out at 0.15.

With RRIRSRPPRLPRPRPRPDIDPRP, the “shrunken log2 fold change” value was -0.15.

Regarding RRIRDRPPRLPRPRPRPMLDPRP, the “shrunken log2 fold change” value was -0.0254.

Take RRIRMRPPRLPRPRPRPEWMPRP: the “shrunken log2 fold change” value turned out to be 0.156.

On to RRIRIRPPRLPRPRPRPFPYPRP, for which the “shrunken log2 fold change” value was -0.288.

As for RRIRLRPPRLPRPRPRPYHHPRP, the “shrunken log2 fold change” value was -0.398.

Turning to RRIRKRPPRLPRPRPRPGMYPRP, the “shrunken log2 fold change” value was 0.102.

With RRIRDRPPRLPRPRPRPKRAPRP, the “shrunken log2 fold change” value is -0.0273.

As to RRIRNRPPRLPRPRPRPKAKPRP, the “shrunken log2 fold change” value was 0.146.

Consider RRIRRRPPRLPRPRPRPVCHPRP, for which the “shrunken log2 fold change” value was -0.0349.

For RRIRIRPPRLPRPRPRPCIQPRP, the “shrunken log2 fold change” value is -0.185.

RRIRLRPPRLPRPRPRPITPPRP: the “shrunken log2 fold change” value worked out at 0.163.

On to RRIRVRPPRLPRPRPRPCFYPRP, for which the “shrunken log2 fold change” value is -0.511.

As for RRIRCRPPRLPRPRPRPESPPRP, the “shrunken log2 fold change” value amounted to 0.315.

With RRIRNRPPRLPRPRPRPYMYPRP, the “shrunken log2 fold change” value amounted to 0.0369.

RRIRIRPPRLPRPRPRPCFLPRP: the “shrunken log2 fold change” value is -0.544.
